We go through two molecules from US20180022809A1 (VENTANA MEDICAL SYSTEMS, published 2018).

Assay [1] concerns the target human programmed death-ligand 1 (PD-L1) (human) (UniProt Q9NZQ7). The assay is described as follows: IHC on FFPE tissue sections of 119 NSCLC cases.
In assay [2] the target is T1, peptide fragment of the cytoplasmic region (amino acid residues 279-290) of human PD-L1 (human, not fully specified).
T1 construct: For immunization, Cys-Gly was appended to the N-terminus and the peptide was conjugated to KLH; also called PD-L1 antigen
T1 peptide: SKKQSDTHLEET
The assay is described as follows: ELISA screen on the PD-L1 peptide antigen. A general note: ELISA stands for enzyme-linked immunosorbent assay.

No end group written: not given here.

Chain of human programmed death-ligand 1 (PD-L1) (human) (Q9NZQ7 19-290 limits assumed): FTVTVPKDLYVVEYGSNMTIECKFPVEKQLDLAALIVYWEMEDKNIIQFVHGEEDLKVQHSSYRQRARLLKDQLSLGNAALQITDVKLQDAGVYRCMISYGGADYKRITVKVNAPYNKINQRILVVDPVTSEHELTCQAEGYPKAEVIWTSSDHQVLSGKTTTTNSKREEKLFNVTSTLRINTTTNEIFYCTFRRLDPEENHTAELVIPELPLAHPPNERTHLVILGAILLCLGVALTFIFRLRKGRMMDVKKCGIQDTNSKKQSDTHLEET

Consider “anti-PD-L1 antibody E1L3N (Cell Signaling Technology)”, for which the mean H score (extent of membrane immunoreactivity) (H score (range 0 to 300)) in assay [1] was 56.

B1: anti-PD-L1 antibody SP142 (antibody, V domains shown)
VH: QSLEESGGRLVKPDETLTITCTVSGIDLSSNGLTWVRQAPGEGLEWIGTINKDASAYYASWAKGRLTISKPSSTKVDLKITSPTTEDTATYFCGRIAFKTGTSIWGPGTLVTVSS
VL: AIVMTQTPSPVSAAVGGTVTINCQASESVYSNNYLSWFQQKPGQPPKLLIYLASTLASGVPSRFKGSGSGTQFTLTISGVQCDDAATYYCIGGKSSSTDGNAFGGGTEVVVR
notes: the constant regions are not; also called rabbit anti-human PD-L1 (SP142) monoclonal antibody
B1: the binding result in assay [2] is “binds”.
